Measurements taken from patent publication US20170369552A1.

Assays:
[1] = target: VEGF165, a splice variant of VEGF-A (UniProt P15692); assay: competitive binding in solution; 5 pM VEGF165 overnight, free VEGF165 by Quantikine sandwich ELISA
[2] = target: VEGF165, a splice variant of VEGF-A (UniProt P15692); assay: cell-based or functional assay
[3] = target: VEGF165, a splice variant of VEGF-A (UniProt P15692); assay: direct binding ELISA; VEGF165 coated, anti-human IgG Fc-HRP detection

Chain of VEGF165, a splice variant of VEGF-A (P15692 other isoform, or with tags, fused parts or gaps mutant): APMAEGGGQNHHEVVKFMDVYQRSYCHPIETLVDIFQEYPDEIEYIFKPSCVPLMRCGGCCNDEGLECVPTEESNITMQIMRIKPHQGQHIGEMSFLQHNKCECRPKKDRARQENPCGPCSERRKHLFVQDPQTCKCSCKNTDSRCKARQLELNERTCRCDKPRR

For “Positive Control 1 (synthesized VEGF Trap) (from UniProt P17948 129-230; P35968 225-327) (Fc fusion)”, the IC50 [1] was 5.17 pM, the inhibition of VEGF-dependent HUVEC proliferation, IC50 [2] was 0.068 nM and the EC50 [3] was 0.087 nM.
